Measurements reported in the RNAGym collection of RNA variant scans (doi:10.1073/pnas.2313332121).

B1: TPR t1 (parent)
chain: GACCAAUCUGCCCUCAGAGCUCGAGAACAUCUUCGGAUGCAGAGGAGGCAGGCUUCGGUGGCGCGAUAGCGCCAACGUCCUCAACCUCCAAUGCAUCCCACCACAUGAUGAUGCCUGAAGAGCCUUGGUUUUUUG

Variants of: B1
Assay: polymerase ribozyme fitness, log enrichment relative to wild type (log ratio); higher = more active; in vitro selection for triplet polymerase activity
In short: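 One round of in vitro selection, in triplicate, was applied to PCR-built, transcribed mutant libraries of each subunit of a heterodimeric triplet polymerase ribozyme. The steps were annealing with a biotinylated primer, partner subunit and triplets, incubation frozen at −7 °C, gel excision of extended constructs, streptavidin-bead capture and RT-PCR. Fitness is the logarithm, base 2, of genotype enrichment over wild-type enrichment from inverse-variance-weighted replicate averages of Illumina-sequenced inputs and outputs, keeping genotypes with ≥10 input reads and ≥1 read per output.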

Variant	polymerase ribozyme fitness (log ratio)
G71C A118U	-0.826
C72G G77C A95G C101G	-2.74
G71U A119U	-0.434
C72G U106G G110U A121U U126A G127A	-5.78
C72G A111U	-3.82
C72G A111G	0.355
C72A U87G	0.194
G71A U81A A84U	-2.93
G71C	-1.04
G71U	-0.118
C72U A111C A121U G128A	-1.12
C72G G135A	-0.341
C72G A90U C101A G122A	-3.94
C72G U78G C97U	0.186
C72A U109A	-4.06
G71C A100C	-2.78
G71A U78C C114G	-5.04
C72A C123A U126G	-0.782
C72U C85A A105U	-3.17
C72U A84U C85U C104U	-0.48
C72A G117A U126A	-1.78
C72U A118U G120U	-0.322
G71U U92C	-1.11
G71C A121C C123U C124U	-2.8

Variant	polymerase ribozyme fitness (log ratio)
C72A U87C C88G U116G	-3.6
G71C C85A G117A	-2.67
C72A A105U G122A	-2.49
G71U G77C U126C	-2.3
C72G C79A	-0.874
G71C A111U	-4.31
G71U C86U C102U	-2.63
G71U A84G G120A U130G	-1.33
C72A A100U U106C	-0.411
C72G U81C	-1.12
C72G U81A	-2.98
C72G U78G C97U C124A	1.18
G71U G127A	-1.25
C72G G77A G120A	-1.96
G71U G93U C104U A119G	0.516
G71U C76G	-2.91
C72A A90U C115U	-1.55
C72G U81C C104G C115U U133A	-6.64
C72A C82G U112G G117A U126C U129G	-5.85
C72A G120A U130G	-0.18
G71U G107A	-4.04
C72G A90G	-1.28
C72G A121G	0.881
C72G A121U	0.731

Variant	polymerase ribozyme fitness (log ratio)
G71A G127U	-0.848
G71C A100U G120U	-1.67
C72G A100U G113U C124U	-4.64
G71A G113U	-3.89
G71A G113A	-1.22
G71C G120U	-0.52
G71C C99U	-4.28
C72U A74U	-1.23
C72A U81A C86U U106A G128A U130A	-4.98
G71U U78A C80U C114G	-2.44
G71A G93C A95C	-2.61
G71C U132A	-0.602
C72U C80U C82A U129G	-2.75
C72A C104G	-7.39
C72G U78G U116A	-3.97
G71C C80U	-4.42
C72A G93U G110U	-2.37
C72G C97U	-1.05
C72A U81G G120U	-0.653
C72U A121C U131C	0.346
G71C G93A C102A	-5.09
C72A U133A	0.191
G71U C86U	-0.637
C72G C73U G93C A111C G122U G135A	-4.92

Variant	polymerase ribozyme fitness (log ratio)
C72G A90C C101U	-1.47
G71C C114G	-4.37
C72A C104A A105U G120A	-2.67
C72A C102A U129A	-2.3
G71C C102G C114U C115U G120C	-5.82
C72A A111C	-0.314
C72A A111U	-2.42
C72A C124U	1.25
C72G U81C U87C A100U	-2.07
C72A C80U	0.231
C72G C98A C101U G110U G120U C123G U130G	-6.41
C72A C85U C104U	0.563
C72G U125A U133C	-0.433
C72G G113C	-2.87
C72G G113A	-1.71
G71C G122A	-2.06
C72G C94A A119U	-1.99
C72U A105U U131C U132A	-2.36
C72U C73A U81A C85U G122A	-4.88
G71A U112A	0.323
C72A G77A	-0.135
C72U C80A U87C	-3.67
G71C C88U A90C C115G	-4.94
G71C C94U	-3.04

Variant	polymerase ribozyme fitness (log ratio)
C72G U78G	-0.102
G71U A74U C104A G117A C124U	-5.66
G71U G117U	-1.78
C72G C102A A105C	-5.78
G71U C72G C123A	-2.68
C72G U106G	-1.97
C72G U106C	-0.865
C72G C86U U130C	-0.236
C72A U129C	-0.6
G71A U81G A83U	-6.59
C72U A103U U125G	-6.8
C72G C115U	-1.03
C72G C115A	-0.17
C72G C86A U129C	-2.2
C72A C76G C101A C115A	-1.47
C72U C82A A84C A111C	0.731
C72A C86G G122A	-2.26
C72G C73U	-0.887
C72G C86U	0.195
C72G C86A	-0.939
C72G C86G	-2.24
G71U C94G	-1.13
G71U C94A	-1.14
G71A U92A C99G G120C	-7.51

Variant	polymerase ribozyme fitness (log ratio)
C72G C101A C114U	-3.4
G71C C72G C123G	-5.34
G71U C115A	1.51
C72G U87C G93A C104G C123G	-6.53
G71C C85U C94U U132A	-2.18
C72G U130A	-0.458
G71U U109A	-4.43
G71U A83U C99A A105C C123U	-7.02
C72A C79G	-1.13
G71U U129G	-0.793
G71A G77U	-1.13
G71U C102A	-2.25
C72G C82G G93C	-1.73
C72G A91C A95C A121G G128C U133G	-3.31
G71C A118U C124G	0.835
G71U G135U	-1.02
C72G A83U A90G C114G	-3.25
C72U A103U	-5.16
C72G C99A C114G U129A U132A G135C	-4.93
C72G U112A	0.104
C72G U112G	-0.196
C72G U112C	1.51
C72G A84C	-0.56
G71U C80G G107U G117A	-6.69

Variant	polymerase ribozyme fitness (log ratio)
G71U A111U	-3.91
G71A G107A C114U	-4.4
C72G C114A	-1.55
C72G U87C C99U C115G	-5.69
C72G U92A A118U U131C	-3.98
C72G C88U	-0.692
C72A C73G C86U C115A C123G	-0.582
G71U A105U	-2.22
G71U C97U	-0.285
G71U U81G C114A	-5.63
C72A U81C U109A G110U U112G A121U U125A	-6.45
C72G U125A G128A U133A	-3.47
G71U C85G C88G C115A	-5.75
C72G C88A A90U	-2.14
C72U A83G C85U	-1.39
C72A U96A A108G G122U U129C	-3.93
G71U G77C C86U	-2.09
C72A U96G U132A	-0.0408
G71U U133G	0.225
G71C A84U C94U	-1.84
C72G U78A G127U U129C	-2.25
C72G C86U A111U C115A	-4.83
C72G G93U	-1.16
